PMC5757173

Tests used:
[1] = biological target: FITC (fluorescein isothiocyanate)-labeled RAR (RARΔAB, His-tag); assay: fluorescence polarisation; fluorescence anisotropy; FEZ1 (1 nM to 5000 nM) titrated into 50 nM FITC-labeled RAR; 20 mM Tris pH 8.0, 50 mM NaCl, 2 mM EDTA; 10 °C; presence of all-trans retinoic acid (AT)
[2] = biological target: FITC (fluorescein isothiocyanate)-labeled RAR (RARΔAB, His-tag); assay: fluorescence polarisation; fluorescence anisotropy; FEZ1 (1 nM to 5000 nM) titrated into 50 nM FITC-labeled RAR; 20 mM Tris pH 8.0, 50 mM NaCl, 2 mM EDTA; 10 °C; absence of all-trans retinoic acid

B1: Fasciculation and elongation zeta-1 (1-392) protein fused to an N-terminal 6xHis-tag (natural protein)
chain: MEAPLVSLDEEFEDLRPSCSEDPEEKPQCFYGSSPHHLEDPSLSELENFSSEIISFKSMEDLVNEFDEKLNVCFRNYNAKTENLAPVKNQLQIQEEEETLQDEEVWDALTDNYIPSLSEDWRDPNIEALNGNCSDTEIHEKEEEEFNEKSENDSGINEEPLLTADQVIEEIEEMMQNSPDPEEEEEVLEEEDGGETSSQADSVLLQEMQALTQTFNNNWSYEGLRHMSGSELTELLDQVEGAIRDFSEELVQQLARRDELEFEKEVKNSFITVLIEVQNKQKEQRELMKKRRKEKGLSLQSSRIEKGNQMPLKRFSMEGISNILQSGIRQTFGSSGTDKQYLNTVIPYEKKASPPSVEDLQMLTNILFAMKEDNEKVPTLLTDYILKVLCPT
Kd [1]: 3.8 µM | Kd [2]: 3.4 µM
